How the values were obtained:
[1] = target: T1, FtsZ^D212N (Escherichia coli, UniProt P0A9A6 1-383, D212N); test: pull-down; H-SUMO-ZapA (6 μM) and FtsZ (2 μM) in Pol buffer (50 mM HEPES-NaOH pH 6.8, 50 mM KCl, 10 mM MgCl2), GTP in the buffers throughout, held on Ni-NTA agarose, washed with 500 mM NaCl and 20 mM imidazole, eluted with 250 mM imidazole; fractions on SDS-PAGE; details: both partners purified
T1 construct: also called GTPase mutant (FtsZ^D212N); source: E. coli BL21/pLys, purified (Ni-NTA; His-SUMO tag cleaved with Ulp1); not shown: His-SUMO, N-terminal, cleaved
T1 sequence (looked up): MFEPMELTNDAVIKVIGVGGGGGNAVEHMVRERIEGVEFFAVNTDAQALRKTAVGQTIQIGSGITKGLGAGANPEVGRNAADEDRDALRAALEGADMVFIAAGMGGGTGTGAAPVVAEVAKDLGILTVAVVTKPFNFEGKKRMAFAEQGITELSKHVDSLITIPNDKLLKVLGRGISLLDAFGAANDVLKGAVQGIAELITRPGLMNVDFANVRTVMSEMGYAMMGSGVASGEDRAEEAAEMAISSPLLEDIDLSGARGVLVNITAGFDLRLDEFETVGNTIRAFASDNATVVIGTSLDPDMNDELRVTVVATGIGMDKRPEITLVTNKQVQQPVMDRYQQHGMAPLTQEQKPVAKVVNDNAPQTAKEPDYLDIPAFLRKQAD

[2] = target: T2, wild-type FtsZ (Escherichia coli, UniProt P0A9A6 1-383); test: co-sedimentation; FtsZ or variants (5 μM) with or without equal molar untagged ZapA, 2.5 mM GTP, no Ca2+, room temperature 5 min, ultracentrifugation; pellets and supernatants on SDS-PAGE; 50 mM HEPES pH 6.8, 10 mM MgCl2, 200 mM KCl (legend of Figure 4A); details: both partners purified
T2 construct: FtsZ, Escherichia coli; Forms filaments with GTP; GTP was present in the pull-down and the sedimentation assays; source: E. coli BL21/pLys, purified (Ni-NTA; His-SUMO tag cleaved with Ulp1); not shown: His-SUMO, N-terminal, cleaved
T2 sequence (looked up): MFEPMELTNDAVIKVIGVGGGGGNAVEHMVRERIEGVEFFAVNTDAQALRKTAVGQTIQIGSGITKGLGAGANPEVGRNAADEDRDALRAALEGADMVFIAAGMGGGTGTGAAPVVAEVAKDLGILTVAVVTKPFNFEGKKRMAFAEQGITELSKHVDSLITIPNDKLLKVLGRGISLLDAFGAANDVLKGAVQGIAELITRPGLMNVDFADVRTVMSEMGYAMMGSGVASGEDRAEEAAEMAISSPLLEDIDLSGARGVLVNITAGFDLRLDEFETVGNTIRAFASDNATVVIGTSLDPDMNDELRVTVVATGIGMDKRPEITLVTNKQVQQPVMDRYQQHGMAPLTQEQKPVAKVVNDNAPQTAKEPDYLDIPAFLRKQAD

[3] = target: the molecule itself; test: sedimentation of polymers; FtsZ variants (5 μM) in Pol buffer with 10 mM CaCl2 and 2.5 mM GTP, room temperature, ultracentrifugation at 100,000 rpm for 15 min at 25°C; polymerization of FtsZ with itself

B1: H-SUMO-ZapA (natural protein, Escherichia coli, UniProt P0ADS2 1-109, looked up)
chain: MSAQPVDIQIFGRSLRVNCPPDQRDALNQAADDLNQRLQDLKERTRVTNTEQLVFIAALNISYELAQEKAKTRDYAASMEQRIRMLQQTIEQALLEQGRITEKTNQNFE
notes: ZapA, Escherichia coli; Held on Ni-NTA agarose by the His tag in the pull-down; source: E. coli BL21 (DE3)/pLys, purified (Ni-NTA); not shown: His, N-terminal, kept; SUMO, N-terminal, kept
**Q.** Does B1 bind [1]?
**A.** binds

B2: untagged ZapA (natural protein, Escherichia coli, UniProt P0ADS2 1-109, looked up)
chain: MSAQPVDIQIFGRSLRVNCPPDQRDALNQAADDLNQRLQDLKERTRVTNTEQLVFIAALNISYELAQEKAKTRDYAASMEQRIRMLQQTIEQALLEQGRITEKTNQNFE
notes: ZapA, Escherichia coli; source: E. coli BL21 (DE3)/pLys, purified (Ni-NTA; His-SUMO tag cleaved with Ulp1); not shown: His-SUMO, N-terminal, cleaved
**Q.** Does B2 bind [2]?
**A.** binds

B3: FtsZ^F2A (natural protein, Escherichia coli, UniProt P0A9A6 1-383, looked up)
chain: MAEPMELTNDAVIKVIGVGGGGGNAVEHMVRERIEGVEFFAVNTDAQALRKTAVGQTIQIGSGITKGLGAGANPEVGRNAADEDRDALRAALEGADMVFIAAGMGGGTGTGAAPVVAEVAKDLGILTVAVVTKPFNFEGKKRMAFAEQGITELSKHVDSLITIPNDKLLKVLGRGISLLDAFGAANDVLKGAVQGIAELITRPGLMNVDFADVRTVMSEMGYAMMGSGVASGEDRAEEAAEMAISSPLLEDIDLSGARGVLVNITAGFDLRLDEFETVGNTIRAFASDNATVVIGTSLDPDMNDELRVTVVATGIGMDKRPEITLVTNKQVQQPVMDRYQQHGMAPLTQEQKPVAKVVNDNAPQTAKEPDYLDIPAFLRKQAD
notes: FtsZ, Escherichia coli; source: E. coli BL21/pLys, purified (Ni-NTA; His-SUMO tag cleaved with Ulp1); not shown: His-SUMO, N-terminal, cleaved
**Q.** Does B3 bind [3]?
**A.** binds
